Among the data in patent US20250290123 are activity (% ligation yield) and activity (% ligated product) values, retold here.

For series [1], the system named is LigAT_C-RNAseH-Ecoli (ATCV-1 ligase fused at C-terminus to inactive E. coli RNase H) (Acanthocystis turfacea chlorella virus 1 / Escherichia coli). Conditions: CE ligation assay.
Series [2] has as its system LigAT-HU (control ligase). The settings on record: CE ligation assay, control buffer, 2 h 37 C.
Series [3] deals with LigAT-HU (control ligase). Conditions: 5'-phosphate; control buffer 37 C; less than 5% at 55 C.
The test system of series [4] is LigAT_C-RNAseH-Ecoli (ATCV-1 ligase fused at C-terminus to inactive E. coli RNase H) (Acanthocystis turfacea chlorella virus 1 / Escherichia coli). The settings on record: 5'-phosphate; Buffer 1B, 37-55 C, 2 h, 1 uM ligase.
Series [5] concerns LigAT_C-RNAseH-Sto (Acanthocystis turfacea chlorella virus 1 / Sulfolobus tokodaii). The settings on record: 5'-phosphate; Buffer 2B, 37-55 C, 2 h.

Where two headings read alike, the source gives them in different places.

In series [1] (5'-phosphate on SEQ 43, matched junction), “AA junction RNA template with DNA substrates A and pA” returned an activity (% ligation yield) of 37. In series [1], AC junction template and substrates came in with an activity (% ligation yield) of 36. Turning to AG junction template and substrates, the values for the activity (% ligation yield) in series [2] and in series [1] were < 10 and 23, respectively. AT junction template and substrates: in series [1], the activity (% ligation yield) is 37. As to CA junction template and substrates, the activity (% ligation yield) in series [1] is 39. As to CC junction template and substrates, the activity (% ligation yield) in series [2] is < 10; in series [1], 33.

Turning to CG junction template and substrates, the activity (% ligation yield) in series [2] is < 10; in series [1], 17. In the case of CT junction template and substrates, the activity (% ligation yield) in series [1] amounted to 43. On to “DNA padlock probes annealed to RNA template”, for which the activity (% ligated product) in series [3] was 25; in series [4], > 75; in series [5], > 75.

As to GA junction template and substrates, the activity (% ligation yield) in series [1] was found to be 48. GC junction template and substrates: the results for the activity (% ligation yield) in series [2] and in series [1] were < 10 and 35, respectively.

With GG junction template and substrates, the activity (% ligation yield) in series [2] is < 10; in series [1] it was 27. GT junction template and substrates came in with an activity (% ligation yield) in series [1] of 47.

The substance TA junction template and substrates yielded an activity (% ligation yield) in series [1] of 45. The same measure, in the same setting: the same measure for TC junction template and substrates: 49. In series [1], TG junction template and substrates had an activity (% ligation yield) of 40.

For the substance TT junction template and substrates, the activity (% ligation yield) in series [1] was determined as 50.
